In PMC10774421 (Nature Communications, 2024):

How the values were obtained:
[1] = molecular target: HiSiaQM OFS #2 (Y252C/M297C in HiSiaQM ΔCys) (Haemophilus influenzae) (UniProt P44543); experiment: single-molecule TIRF microscopy
HiSiaP = molecular target: T1, HiSiaP (Haemophilus influenzae, UniProt P44542, S67C/S194C); conditions: 50 mM Tris pH 8, 50 mM NaCl; average of triplicates; CLOSED #1, no oxidant added
T1 construct: gene siaP

wild-type HiSiaQM = molecular target: T2, wild-type HiSiaQM (Haemophilus influenzae, UniProt P44543); experiment: single-molecule TIRF microscopy; conditions: both partners purified
T2 construct: also called wt HiSiaQM; HiSiaQM wt

“AF647-labeled wild-type HiSiaP (K254C) (from UniProt P44542 24-329) (natural protein)” showed a change of the rate of interactions (against the wild-type proteins) [1] of -50%.

Molecule `CC(=O)N[C@H]1[C@H]([C@H](O)[C@H](O)CO)OC(O)(C(=O)O)C[C@@H]1O` (stereo partly drawn) [Neu5Ac] has a Kd (HiSiaP) of 800 nM.

B1: AF555-VHHQM3 (S85C) (VHH)
VHH: QLQLVETGGGLVQPGGSLRLSCTASRVTLDYHDIGWFRQAPGKEREGVSYISSSGGSTNYADSVKGRFTISRDNAKNTVYLQMNCLKPEDTAVYYCARSSAYGSSWLNPSRYDYWGQGTQVTVSS
B1: binds (wild-type HiSiaQM).
